Reference: article PMC3112443

Key:
[1] = non-reducing Western blot; settings: glycan lost; control: wild type
[2] = supernatant titer on PFVL luciferase indicator cells; settings: glycan lost; control: wild type

B1: human tetherin (HuTHN; BST-2, CD317, HM1.24): N65/92A (protein)
parent chain: MASTSYDYCRVPMEDGDKRCKLLLGIGILVLLIIVILGVPLIIFTIKANSEACRDGLRAVMECRNVTHLLQQELTEAQKGFQDVEAQAATCNHTVMALMASLDAEKAQGQKKVEELEGEITTLNHKLQDASAEVERLRRENQVLSVRIADKKYYPSSQDSSSAAAPQLLIVLLGLSALLQ
Question: For B1, which oligomerisation [1] is on record?
Answer: no change

Question: And the “other: inhibition of virus release” value [2]?
Answer: no change
